Test [1] deals with mouse PD-1 (mPD-1) on transfected CHO cells (mouse) (UniProt Q02242). The test is described as follows: flow cytometry on CHO cells transfected with mPD-1 (CHO-mPD-1); anti-mIgG Fc-FITC against SSC-H.
Test [2] deals with monkey (rhesus macaque) PD-1 (rmPD-1) on transfected CHO cells (rhesus macaque). The test is described as follows: flow cytometry on CHO cells transfected with rmPD-1 (CHO-rmPD-1); anti-mIgG Fc-FITC against SSC-H.
The target in test [3] is chimeric (mouse and human) PD-1 (chiPD-1) on transfected CHO cells (chimeric (mouse and human)). The test is described as follows: flow cytometry on CHO cells transfected with chiPD-1 (CHO-chiPD-1); anti-mIgG Fc-FITC against SSC-H.
chimeric (mouse and human) PD-1 (chiPD-1) on transfected CHO cells (chimeric (mouse and human)), sequence (chain, as listed by the source mutant limits assumed): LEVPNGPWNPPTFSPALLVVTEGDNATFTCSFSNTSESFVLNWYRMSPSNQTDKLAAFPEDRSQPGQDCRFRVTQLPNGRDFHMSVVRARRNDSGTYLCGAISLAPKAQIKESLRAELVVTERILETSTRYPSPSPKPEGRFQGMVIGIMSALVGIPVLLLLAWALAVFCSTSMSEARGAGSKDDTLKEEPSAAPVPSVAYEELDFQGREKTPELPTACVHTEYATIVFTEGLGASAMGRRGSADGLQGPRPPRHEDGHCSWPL
Test [4] deals with T1, mouse PD-1 (mPD-1) on transfected CHO cells (mouse, UniProt Q02242 25-288).
T1 sequence: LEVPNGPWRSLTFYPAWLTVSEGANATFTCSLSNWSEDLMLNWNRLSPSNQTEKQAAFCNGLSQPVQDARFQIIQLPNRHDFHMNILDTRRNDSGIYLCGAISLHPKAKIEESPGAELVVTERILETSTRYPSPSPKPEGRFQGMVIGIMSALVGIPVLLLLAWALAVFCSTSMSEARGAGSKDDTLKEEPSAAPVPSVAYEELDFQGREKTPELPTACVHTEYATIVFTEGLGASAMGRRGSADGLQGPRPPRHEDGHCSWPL
The test is described as follows: flow cytometry on CHO cells transfected with mouse PD-1. As to the method:
(§1) 25 μl CHO cells were added to each well.
(§2) After being washed with PBS (1200 rmp, 5 min) twice, 50 μl of FITC labeled anti-mouse IgG Fc antibody (anti-mIgG Fc-FITC) was added into each well 1:500 dilution, followed by incubated at 4° C. for 30 minutes, and then PBS wash (1200 rmp, 5 min). The signals for FITC were determined by flow cytometry.

Test [5] has as its target T1, mouse PD-1 (mPD-1) on transfected CHO …. The test is described as follows: flow cytometry, antibody at 1 µg/ml on CHO cells transfected with mPD-1 (CHO-mPD-1); anti-mIgG Fc-FITC against SSC-H. As to the method:
as §1, §2

Test [6] has as its target T2, monkey (rhesus macaque) PD-1 (rmPD-1) on transfected CHO cells (rhesus macaque, UniProt Q15116 25-288 (human entry)).
T2 construct: also called monkey PD-1
T2 chain: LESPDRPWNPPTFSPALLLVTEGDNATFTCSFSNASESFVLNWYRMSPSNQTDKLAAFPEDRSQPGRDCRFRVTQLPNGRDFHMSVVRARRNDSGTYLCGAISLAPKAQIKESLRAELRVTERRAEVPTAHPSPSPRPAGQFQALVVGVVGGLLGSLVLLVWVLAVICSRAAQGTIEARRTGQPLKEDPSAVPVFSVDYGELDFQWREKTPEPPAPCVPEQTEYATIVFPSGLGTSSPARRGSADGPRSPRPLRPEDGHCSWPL
The test is described as follows: flow cytometry, antibody at 1 µg/ml on CHO cells transfected with rmPD-1 (CHO-rmPD-1); anti-mIgG Fc-FITC against SSC-H. As to the method: as §1, §2

On to NC, for which the % cells positive for Anti-mouse-IgGFc-FITC in test [1] came out at 0.346%; in test [2] it was 0.812%; in test [3], 2.79%.

B1: mouse anti-hPD-1 antibody 18-3F1 (antibody, V domains shown)
VH: QVQLQQSGAELAKPGASVKMSCKASGYTFTSYWMHWVKQRPGQGLEWIGYINPSTGYTEYNQKFKDKATLTADKSSSTAYMQLSSLTSEDSAVYYCARGVRYYFDYWGQGTTLTVSS
VL: DIVMSQSPSSLAVSAGEKVTMSCKSSQSLLNSRTRKNYLAWYQQKPGQSPKLLIYWASTRESGVPDRFTGSGSGTDFTLTISSVQAEDLAVYYCKQSYNLLTFGAGTKLELK
notes: Mouse monoclonal antibody purified from ascites
Consider B1, for which, in test [4], the binding result is “no binding (tested: 1 µg/ml)”. Besides, the “% cells positive for Anti-mouse-IgGFc-FITC” value in test [5] was determined as 1.51%; in test [6], 63.6%.

B2: mouse anti-hPD-1 antibody 3-6G1 (antibody, V domains shown)
VH: QVQLQQSGAELAKPGASLKMSCKASGYTLTSYWMHWVKQRPGQGLEWIGYINPNTGYTEYNQKFKDKATLTADKSSSTAYMQLSSLTSEDSAVYYCARGTAYYFDYWGQGTTLTVSS
VL: DIVMSQSPSSLAVSAGEKVTMSCKSSQSLLNSRTRKNYLAWYQQKPGQSPKLLIYWASTRESGVPDRFTGSGSGTDFTLTISSVQAEDLAVYYCKQSYNLQTFGGGTKLEIK
notes: Mouse monoclonal antibody purified from ascites; also called 03-6G1
For B2, the binding result in test [4] is “no binding (tested: 1 µg/ml)”. Moreover, the “% cells positive for Anti-mouse-IgGFc-FITC” value was determined as 0.502% in test [5] and 64.3% in test [6].

Values taken from US20250034256A1 (EUCURE BEIJING BIOPHARMA, published 2025).
